Assay results as given in doi:10.1101/2022.04.28.489915 (bioRxiv, 2022).

Molecular target: T1, TolC (E. coli, UniProt P02930 23-493)
T1 sequence: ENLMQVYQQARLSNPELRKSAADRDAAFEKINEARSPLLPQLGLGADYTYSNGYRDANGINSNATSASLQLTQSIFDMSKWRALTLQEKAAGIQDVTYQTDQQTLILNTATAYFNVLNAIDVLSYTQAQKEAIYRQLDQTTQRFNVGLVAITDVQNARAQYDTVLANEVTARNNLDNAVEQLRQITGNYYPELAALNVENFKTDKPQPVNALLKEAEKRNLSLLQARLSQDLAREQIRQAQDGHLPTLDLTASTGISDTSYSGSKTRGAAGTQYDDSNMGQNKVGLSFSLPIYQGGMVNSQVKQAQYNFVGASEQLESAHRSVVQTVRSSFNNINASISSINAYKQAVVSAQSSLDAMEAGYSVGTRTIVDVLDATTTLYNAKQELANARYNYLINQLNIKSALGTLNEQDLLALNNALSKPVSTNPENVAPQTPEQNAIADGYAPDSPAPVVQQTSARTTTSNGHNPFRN
Experiment: SEC

B1: residues 1-190 of colicin E1 (colE1-T) (domain or fragment)
chain: METAVAYYKDGVPYDDKGQVIITLLNGTPDGSGSGGGGGKGGSKSESSAAIHATAKWSTAQLKKTQAEQAARAKAAAEAQAKAKANRDALTQRLKDIVNEALRHNASRTPSATELAHANNAAMQAEDERLRLAKAEEKARKEAEAAEKAFQEAEQRRKEIEREKAETERQLKLAEAEEKRLAALSEEAKA
binding result: binds
